Experimental data published in patent US20110086767A1, “MUTANTS OF GLYCOSIDE HYDROLASES AND USES THEREOF FOR SYNTHESIZING COMPLEX OLIGOSACCHARIDES AND DISACCHARIDE INTERMEDIATES” (Institut Pasteur, priority 2008, published 2011).

Assay: HPLC screening of double-mutant libraries for variants able to glucosylate D-GlcpNAc
Format: biochemical
Details: α-D-Glcp-(1→4)-α-D-GlcpNAc (ED) from sucrose and D-GlcpNAc, microplate format
Description: The protocol was established to enable the rapid identification of clones for which D-GlcpNAc glucosylation was improved. To obtain higher amounts of enzymes and facilitate detection of glucosylated compounds upon HPLC screening, mutants were produced in 96-DeepWell Format plates. Storage microplates containing monomutants were thawed and replicated to inoculate a starter culture in 96-well microplates containing, in each well, 150 μL LB medium supplemented with ampicillin (100 μg/mL). After growth for 24 h at 30° C. under agitation (200 rpm), plates were duplicated into 96-Deep Well plates containing, in each well, 1.1 mL LB medium supplemented with ampicillin (100 μg/mL) and IPTG (1 mM) to induce GST-AS expression. Cultures were then grown for 24 h at 30° C. under agitation (200 rpm). Plates were centrifuged (20 min, 3000 g, 4° C.) and the supernatant was removed. The cell pellet was resuspended in 200 μL of lysozyme (0.5 mg/mL), followed by freezing at −80° C. for 8 to 12 h. After thawing at room temperature, 100 μL of sucrose and 100 μL of acceptor (each at a final concentration of 73 mM) were added to each well. Enzymatic reaction was incubated at 30° C. during 24 h under agitation. The DeepWell plates were then centrifuged (20 min, 3000 g, 4° C.) and 300 μL of the supernatant was transferred to a filter micro-plate (PVDF 0.2 μm) to be clarified. Supernatant filtration was carried out by centrifugation of the filter micro-plate (5 min, 2000 g, 4° C.) into a novel microplate for screening.
The method for the expression of the mutant libraries is described in Example 1-1.
Acceptor reaction products were analyzed by HPLC analysis using a C18-AQ column (Bischoff C18, 125×4 mm, 3 μm) kept at room temperature and eluted with 0.6 mL/min of ultra-pure water to detect α-D-Glcp-(1→4)-α-D-GlcpNAc formation (analysis time: 7 min). To evaluate the efficiency of the glucosylation reaction, it was carried out complementary HPLC analyses with a Biorad HPX-87K Carbohydrate Analysis column (maintained at 65° C., and eluted at a flow rate of 0.6 mL/min with ultra-pure water). By this way, it was possible to measure sucrose consumption by RI detection and concomitant α-D-Glcp-(1-4)-α-D-GlcpNAc formation by UV220 nm and determine mutant ability to synthesize the desired disaccharide α-D-Glcp-(1→4)-α-D-GlcpNAc (i.e., % Glucosyl units transferred onto acceptor derivatives=[Glucosyl units transferred onto acceptor derivatives]/[Glucosyl units transferred from initial sucrose]×100)
All clones producing sucrose-utilizing variants were then picked and cultured in 96-well microplates. Following cell lysis, the acceptor reaction in the presence of D-GlcpNAc was then carried out in microplate format. HLPC analysis time for each clone was reduced to 7 min for detection of α-D-Glcp-(1→4)-α-D-GlcpNAc. When disaccharide formation was detected, complementary analyses were performed to determine sucrose consumption and disaccharide formation with more accuracy in order to calculate the glucosylation yield.

B1: F290V: single mutant F290V of N. polysaccharea amylosucrase (protein)
chain: SPNSQYLKTRILDIYTPEQRAGIEKSEDWRQFSRRMDTHFPKLMNELDSVYGNNEALLPMLEMLLAQAWQSYSQRNSSLKDIDIARENNPDWILSNKQVGGVCYVDLFAGDLKGLKDKIPYFQELGLTYLHLMPLFKCPEGKSDGGYAVSSYRDVNPALGTIGDLREVIAALHEAGISAVVDFIFNHTSNEHEWAQRCAAGDPLFDNFYYIFPDRRMPDQYDRTLREIFPDQHPGGFSQLEDGRWVWTTFNSFQWDLNYSNPWVFRAMAGEMLFLANLGVDILRMDAVAVIWKQMGTSCENLPQAHALIRAFNAVMRIAAPAVFFKSEAIVHPDQVVQYIGQDECQIGYNPLQMALLWNTLATREVNLLHQALTYRHNLPEHTAWVNYVRSHDDIGWTFADEDAAYLGISGYDHRQFLNRFFVNRFDGSFARGVPFQYNPSTGDCRVSGTAAALVGLAQDDPHAVDRIKLLYSIALSTGGLPLIYLGDEVGTLNDDDWSQDSNKSDDSRWAHRPRYNEALYAQRNDPSTAAGQIYQDLRHMIAVRQSNPRFDGGRLVTFNTNNKHIIGYIRNNALLAFGNFSEYPQTVTAHTLQAMPFKAHDLIGGKTVSLNQDLTLQPYQVMWLEIA
Glusosylation Yield to synthesize ED: 100%

B2: I228V-F290V: double mutant I228V, F290V of N. polysaccharea amylosucrase (protein)
chain: SPNSQYLKTRILDIYTPEQRAGIEKSEDWRQFSRRMDTHFPKLMNELDSVYGNNEALLPMLEMLLAQAWQSYSQRNSSLKDIDIARENNPDWILSNKQVGGVCYVDLFAGDLKGLKDKIPYFQELGLTYLHLMPLFKCPEGKSDGGYAVSSYRDVNPALGTIGDLREVIAALHEAGISAVVDFIFNHTSNEHEWAQRCAAGDPLFDNFYYIFPDRRMPDQYDRTLREVFPDQHPGGFSQLEDGRWVWTTFNSFQWDLNYSNPWVFRAMAGEMLFLANLGVDILRMDAVAVIWKQMGTSCENLPQAHALIRAFNAVMRIAAPAVFFKSEAIVHPDQVVQYIGQDECQIGYNPLQMALLWNTLATREVNLLHQALTYRHNLPEHTAWVNYVRSHDDIGWTFADEDAAYLGISGYDHRQFLNRFFVNRFDGSFARGVPFQYNPSTGDCRVSGTAAALVGLAQDDPHAVDRIKLLYSIALSTGGLPLIYLGDEVGTLNDDDWSQDSNKSDDSRWAHRPRYNEALYAQRNDPSTAAGQIYQDLRHMIAVRQSNPRFDGGRLVTFNTNNKHIIGYIRNNALLAFGNFSEYPQTVTAHTLQAMPFKAHDLIGGKTVSLNQDLTLQPYQVMWLEIA
Glusosylation Yield to synthesize ED (listed as DM4_P1_G7): 90%
Glusosylation Yield to synthesize ED (listed as DM4_P2_B10): 47%

B3: I228A-F290H: double mutant I228A, F290H of N. polysaccharea amylosucrase (protein)
chain: SPNSQYLKTRILDIYTPEQRAGIEKSEDWRQFSRRMDTHFPKLMNELDSVYGNNEALLPMLEMLLAQAWQSYSQRNSSLKDIDIARENNPDWILSNKQVGGVCYVDLFAGDLKGLKDKIPYFQELGLTYLHLMPLFKCPEGKSDGGYAVSSYRDVNPALGTIGDLREVIAALHEAGISAVVDFIFNHTSNEHEWAQRCAAGDPLFDNFYYIFPDRRMPDQYDRTLREAFPDQHPGGFSQLEDGRWVWTTFNSFQWDLNYSNPWVFRAMAGEMLFLANLGVDILRMDAVAHIWKQMGTSCENLPQAHALIRAFNAVMRIAAPAVFFKSEAIVHPDQVVQYIGQDECQIGYNPLQMALLWNTLATREVNLLHQALTYRHNLPEHTAWVNYVRSHDDIGWTFADEDAAYLGISGYDHRQFLNRFFVNRFDGSFARGVPFQYNPSTGDCRVSGTAAALVGLAQDDPHAVDRIKLLYSIALSTGGLPLIYLGDEVGTLNDDDWSQDSNKSDDSRWAHRPRYNEALYAQRNDPSTAAGQIYQDLRHMIAVRQSNPRFDGGRLVTFNTNNKHIIGYIRNNALLAFGNFSEYPQTVTAHTLQAMPFKAHDLIGGKTVSLNQDLTLQPYQVMWLEIA
Glusosylation Yield to synthesize ED: 88%

B4: F290R: single mutant F290R of N. polysaccharea amylosucrase (protein)
chain: SPNSQYLKTRILDIYTPEQRAGIEKSEDWRQFSRRMDTHFPKLMNELDSVYGNNEALLPMLEMLLAQAWQSYSQRNSSLKDIDIARENNPDWILSNKQVGGVCYVDLFAGDLKGLKDKIPYFQELGLTYLHLMPLFKCPEGKSDGGYAVSSYRDVNPALGTIGDLREVIAALHEAGISAVVDFIFNHTSNEHEWAQRCAAGDPLFDNFYYIFPDRRMPDQYDRTLREIFPDQHPGGFSQLEDGRWVWTTFNSFQWDLNYSNPWVFRAMAGEMLFLANLGVDILRMDAVARIWKQMGTSCENLPQAHALIRAFNAVMRIAAPAVFFKSEAIVHPDQVVQYIGQDECQIGYNPLQMALLWNTLATREVNLLHQALTYRHNLPEHTAWVNYVRSHDDIGWTFADEDAAYLGISGYDHRQFLNRFFVNRFDGSFARGVPFQYNPSTGDCRVSGTAAALVGLAQDDPHAVDRIKLLYSIALSTGGLPLIYLGDEVGTLNDDDWSQDSNKSDDSRWAHRPRYNEALYAQRNDPSTAAGQIYQDLRHMIAVRQSNPRFDGGRLVTFNTNNKHIIGYIRNNALLAFGNFSEYPQTVTAHTLQAMPFKAHDLIGGKTVSLNQDLTLQPYQVMWLEIA
Glusosylation Yield to synthesize ED: 100%

B5: I228V-F290K: double mutant I228V, F290K of N. polysaccharea amylosucrase (protein)
chain: SPNSQYLKTRILDIYTPEQRAGIEKSEDWRQFSRRMDTHFPKLMNELDSVYGNNEALLPMLEMLLAQAWQSYSQRNSSLKDIDIARENNPDWILSNKQVGGVCYVDLFAGDLKGLKDKIPYFQELGLTYLHLMPLFKCPEGKSDGGYAVSSYRDVNPALGTIGDLREVIAALHEAGISAVVDFIFNHTSNEHEWAQRCAAGDPLFDNFYYIFPDRRMPDQYDRTLREVFPDQHPGGFSQLEDGRWVWTTFNSFQWDLNYSNPWVFRAMAGEMLFLANLGVDILRMDAVAKIWKQMGTSCENLPQAHALIRAFNAVMRIAAPAVFFKSEAIVHPDQVVQYIGQDECQIGYNPLQMALLWNTLATREVNLLHQALTYRHNLPEHTAWVNYVRSHDDIGWTFADEDAAYLGISGYDHRQFLNRFFVNRFDGSFARGVPFQYNPSTGDCRVSGTAAALVGLAQDDPHAVDRIKLLYSIALSTGGLPLIYLGDEVGTLNDDDWSQDSNKSDDSRWAHRPRYNEALYAQRNDPSTAAGQIYQDLRHMIAVRQSNPRFDGGRLVTFNTNNKHIIGYIRNNALLAFGNFSEYPQTVTAHTLQAMPFKAHDLIGGKTVSLNQDLTLQPYQVMWLEIA
Glusosylation Yield to synthesize ED: 89%

B6: F229V: single mutant F229V of N. polysaccharea amylosucrase (protein)
chain: SPNSQYLKTRILDIYTPEQRAGIEKSEDWRQFSRRMDTHFPKLMNELDSVYGNNEALLPMLEMLLAQAWQSYSQRNSSLKDIDIARENNPDWILSNKQVGGVCYVDLFAGDLKGLKDKIPYFQELGLTYLHLMPLFKCPEGKSDGGYAVSSYRDVNPALGTIGDLREVIAALHEAGISAVVDFIFNHTSNEHEWAQRCAAGDPLFDNFYYIFPDRRMPDQYDRTLREIVPDQHPGGFSQLEDGRWVWTTFNSFQWDLNYSNPWVFRAMAGEMLFLANLGVDILRMDAVAFIWKQMGTSCENLPQAHALIRAFNAVMRIAAPAVFFKSEAIVHPDQVVQYIGQDECQIGYNPLQMALLWNTLATREVNLLHQALTYRHNLPEHTAWVNYVRSHDDIGWTFADEDAAYLGISGYDHRQFLNRFFVNRFDGSFARGVPFQYNPSTGDCRVSGTAAALVGLAQDDPHAVDRIKLLYSIALSTGGLPLIYLGDEVGTLNDDDWSQDSNKSDDSRWAHRPRYNEALYAQRNDPSTAAGQIYQDLRHMIAVRQSNPRFDGGRLVTFNTNNKHIIGYIRNNALLAFGNFSEYPQTVTAHTLQAMPFKAHDLIGGKTVSLNQDLTLQPYQVMWLEIA
Glusosylation Yield to synthesize ED: 88%
